Tests used:
BMP-2 [1] = molecular target: T1, BMP-2 (Homo sapiens, UniProt P12643); conditions: Behnam, 2005; cited from earlier work
T1 sequence (P12643 283-396): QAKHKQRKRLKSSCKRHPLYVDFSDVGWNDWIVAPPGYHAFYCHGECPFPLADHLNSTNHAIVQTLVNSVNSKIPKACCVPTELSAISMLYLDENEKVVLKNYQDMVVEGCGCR

BMP-2 [2] = molecular target: T1, BMP-2; conditions: cited from earlier work
A549 cells [3] = assay: Subcutaneous implantation of A549 cells and direct measurement of tumor size; assay type: in vivo, SCID mice; conditions: 8 weeks after co-injection with A549 cells; rhBMP-2 10 μg, spp24 1000 μg; cells alone 127.4±117.5; mean±SE per method
Source text: (§1) Forty, eight-week-old male SCID mice (weight 23.5 to 29.1 g, mean 27.1 g) were housed under pathogen-free conditions in accordance with the protocol approved by the Chancellor's Animal Research Committee (ARC) at the University of California, Los Angeles. There were four experimental groups in this study, and each group underwent implantation of cells in both a subcutaneous model and an intra-tibial injection. Group I animals received A549 cells alone as a control group. […] Group III received an A549 cells+spp24 (1000 μg). […] There were 10 animals in each group.

[4] = Stability of IMAC-purified His6-spp24 on frozen storage (2D SDS-PAGE); assay type: physicochemical; conditions: stored frozen (−20° C., 3 months) in 8 M urea in the presence of protease inhibitors
Protocol: The proteins in representative fractions containing His6-spp24 and its degradation products were separated by 2D SDS-PAGE by the method of O'Farrell (O'Farrell P. H., J. Biol. Chem., 250, 4007-4021 (1975)) (Nancy Kendrick, Ph.D., Kendrick Laboratories, Madison, Wis.) (Behnam, 2005, Behnam, 2006; Behnam, 2002; and Behnam and Murray, 2005). These fractions had been stored at −20° C. for 3 months in urea buffer plus protease inhibitors, resulting in the slow accumulation of degradation products similar to those previously reported (Urist, 1987) that are not abundant in freshly-prepared fractions. The gel was stained with Coomassie Brilliant Blue, and the three major spots of the appropriate molecular weight (<24 kDa) were selected, excised, eluted, reduced in 5% β-mercaptoethanol, alkylated, trypsin digested, and subjected to peptide mass fingerprint analysis by MALDI/ToF MS (Mary Ann Gawinowicz, Ph.D., Protein Chemistry Core Facility, Howard Hughes Medical Institute, Columbia University, New York, N.Y.) to verify their identities and structures (Behnam, 2005, Behnam, 2006, Behnam, 2002; and Behnam and Murray, 2005). Methionines were not oxidized. Peptides with a mass [M+H^+]>1000 Da were analyzed. The peptide fingerprint was compared to those in the SWISS-PRO and NCBI databanks (Behnam, 2005, Behnam, 2006; Behnam, 2002; and Behnam and Murray, 2005). […]

[5] = Proteolysis of recombinant spp24 by MC3T3-E1 cell extracts (SDS-PAGE, anti-His6 Western blot); assay type: in vitro ADME, mouse; conditions: 37° C.; for time to essentially complete degradation of His6-spp24: presence of 4 mM calcium, MC3T3-E1 cell extracts
Protocol: MC3T3-E1 mouse preosteoblastic cells were cultured to confluence, harvested by trypsinization, pelleted by centrifugation, and suspended in digestion buffer (100 mM HEPES-HCl, pH 7.5, 12.5 mM KCl, 6.25 mM (3-mercaptoethanol, and 0.2% Triton X-100) plus or minus 4 mM CaCl2 at a protein concentration of 2.4 mg/ml. Recombinant spp24 (residues 23 to 204) was exhaustively dialyzed vs. water, lyophilized, and resuspended at 1 mg/ml in digestion buffer (plus or minus 4 mM CaCl2). Equal volumes of cell extract and spp24 were combined, and incubated at 37° C. for 0 to 24 hours. At the intervals indicated, 4 μl aliquots equivalent to 2 μg spp24 were removed, subjected to SDS-PAGE, and Western blotted using antibody directed against the His6 tag as outlined in detail above.

A549 cells [6] = assay: Histologic and histomorphometric analysis of A549 tumors (subcutaneous and tibiae); assay type: in vivo, SCID mice
Source text: as §1
Animals were killed at 8 weeks (or earlier if required by an excessive tumor size) and both the soft tissue tumor and the hind limb were harvested for histological analysis. Soft tissue tumors were fixed in 10% buffered formalin. The tibias were fixed in 10% buffered formalin followed by decalcification in a solution of 10% EDTA for 2 weeks at room temperature with gentle stirring. Longitudinal sections of the proximal tibia were prepared and stained with H&E. For histologic and histomorphometric analyses, all microscopic slides were scanned with a ScanScope GL (Aperio Technologies, Inc., Vista, Calif.) equipped with a 20× objective. The following parameters were considered in the qualitative analysis: amount of tumor cells between cortices from the proximal tibia; anterior and posterior cortical destruction and remodeling; new bone formation within the medullary canal; and anterior/posterior extension of bone formation outside the medullary canal. These histologic findings were graded with the following scale: 0 (none), 1 (mild), 2 (moderate), 3 (intense). Bone volume and tumor volume, expressed as a percentage of total tissue volume (% BV/TV and % TuV/TV, respectively) were quantified in whole-slide images using Spectrum software (Aperio Technologies, Inc. Vista, Calif.).

A549 cells [7] = assay: Intratibial implantation of A549 cells and radiographic analysis; assay type: in vivo, SCID mice; conditions: 8 weeks
Source text: as §1

[8] = test system: A549 human non-small cell lung cancer cells; assay: A549 cell proliferation assay (Quick Cell Proliferation Assay); assay type: cell-based; conditions: 48 h
Protocol: The human non-small cell lung cancer (NSCLC) cell line A549 was used in this study (ATCC, Manassas, Va., USA). A549 cells were maintained in DMEM with 10% FBS and antibiotics (Fisher scientific, Pittsburgh, Pa.) in a humidified incubator with 5% CO2 at 37° C. Cells were not used beyond 10 passages. Cells were plated in serum free medium at a density of 10,000 cells/well and allowed to attach for 24 h. […] Recombinant spp24 was prepared as described previously (Murray E J B, et al., Connect Tiss Res 2007; 48:1-8) and added in serum-free media to final concentrations of 10, 25, 50, 75 μg/ml. Cells were incubated for 48 h before cell proliferation was assessed using Quick Cell Proliferation Assay (BioVision, Mountain View, Calif., USA) according to manufacturer's recommendations. Results were reported as a percentage compared with untreated cells.

A549 = conditions: Feeley, 2006; cited from earlier work
[9] = tibiae, grade 0 (none) to 3 (intense), mean

## BBP: synthetic cyclic 19 amino acid peptide of the TRH1 domain of bovine spp24, CRSTVRMSAEQVQNVWVRC (SEQ ID NO: 8) [reference compound]
BMP-2 [1]
  binding of BMP-2: specifically binds BMP-2
BMP-2 [2]; Behnam, 2005
  effect on BMP-2-induced ectopic bone formation in vivo: enhances the rate and magnitude of BMP-2-induced ectopic bone formation in vivo

B1: spp24: recombinant His6-tagged bovine secreted phosphoprotein-24 kDa, residues 24 to 203 (SEQ ID NO:1), expressed in E. coli (protein)
chain: MHHHHHHFPVYDYDPASLKEALSASVAKVNSQSLSPYLFRAFRSSVKRVNALDEDSLTMDLEFRIQETTCRRESEADPATCDFQRGYHVPVAVCRSTVRMSAEQVQNVWVRCHWSSSSGSSSSEEMFFGDILGSSTSRNSYLLGLTPDRSRGEPLYEPSREMRRNFPLGNRRYSNPWPRARVNPGFE
modifications: N-terminal Met-His6 tag; Synthetic spp24
A549 cells [3]
  subcutaneous tumor volume: 12.6±21.6 mm3
[4]
  susceptibility to proteolysis on storage: highly susceptible to proteolysis
[5]; absence of added calcium, 0 to 24 hours
  degradation of His6-spp24 by MC3T3-E1 cell extracts: essentially no degradation was observed until 24 hr
[5]
  time to essentially complete degradation of His6-spp24: ≤ 2 h
[5]; listed as His6-spp24
  time to essentially complete degradation of His6-spp24: about 2 hours
BMP-2 [2]; ectopic bone forming assay (Sintuu, 2008)
  effect on BMP-2 induced bone formation: strongly inhibits BMP-2 induced bone formation
A549 cells [6]; longitudinal section of the proximal tibia at midline, mean
  % TuV/TV (tumor volume/total volume): insufficient
A549 cells [6]; subcutaneous and intratibial sites, 8 weeks
  tumor cells in histological specimens: only a few scattered tumor cells
A549 cells [6]; tibia section, mean
  % BV/TV (bone volume/total volume): insufficient
A549 cells [6]; [9]
  Anterior cortex destruction (2): 0
  Extension of bone formation outside the medullary canal (5): 0
  New bone formation within the medullary canal (4): 0
  Posterior cortex destruction (3): 0
A549 cells [6]; tibiae, grade 0 (none), 1 (mild), 2 (moderate), 3 (intense), mean
  Amount of tumor cells between cortices (1): 0
A549 cells [7]
  animals with minimal new bone formation: three of ten
A549 cells [7]; score 0 normal to 3 obliteration of two cortices, cells alone 2.1
  average radiographic score: 0.5±0.6
[8]; agent alone, serum-free media, rhBMP-2 0-500 ng/ml, spp24 10-75 μg/ml
  effect on A549 cell proliferation: slight dose-dependent inhibition of proliferation
[8]; spp24 added to the BMP treatment
  effect of spp24 on BMP-stimulated A549 proliferation: attenuation of the BMP affect at all doses

B2: noggin: an inhibitor of BMPs (protein, UniProt Q13253 28-232, looked up)
Noggin: QHYLHIRPAPSDNLPLVDLIEHPDPIFDPKEKDLNETLLRSLLGGHYDPGFMATSPPEDRPGGGGGAAGGAEDLAELDQLLRQRPSGAMPSEIKGLEFSEGLAQGKKQRLSKKLRRKLQMWLWSQTFCPVLYAWNDLGSRFWPRYVKVGSCFSKRSCSVPEGMVCKPSKSVHLTVLRWRCQRRGGQRCGWIPIQYPIISECKCSC
A549
  effect on tumor growth: reduce tumor growth

— patent US8962569B2, “Compositions comprising spp24 peptide fragments” (The Regeants of the University of California, priority 2010, dated 2015)
